Laboratory results published in patent publication US20040191820, “Protection-of telomere-1 (POT-1) protein and encoding polynucleotides” (The Regents of the University of Colorado, published 2004).

T1: hPot1p (Homo sapiens, UniProt Q9NUX5 SEQ:1-634)
T1 chain: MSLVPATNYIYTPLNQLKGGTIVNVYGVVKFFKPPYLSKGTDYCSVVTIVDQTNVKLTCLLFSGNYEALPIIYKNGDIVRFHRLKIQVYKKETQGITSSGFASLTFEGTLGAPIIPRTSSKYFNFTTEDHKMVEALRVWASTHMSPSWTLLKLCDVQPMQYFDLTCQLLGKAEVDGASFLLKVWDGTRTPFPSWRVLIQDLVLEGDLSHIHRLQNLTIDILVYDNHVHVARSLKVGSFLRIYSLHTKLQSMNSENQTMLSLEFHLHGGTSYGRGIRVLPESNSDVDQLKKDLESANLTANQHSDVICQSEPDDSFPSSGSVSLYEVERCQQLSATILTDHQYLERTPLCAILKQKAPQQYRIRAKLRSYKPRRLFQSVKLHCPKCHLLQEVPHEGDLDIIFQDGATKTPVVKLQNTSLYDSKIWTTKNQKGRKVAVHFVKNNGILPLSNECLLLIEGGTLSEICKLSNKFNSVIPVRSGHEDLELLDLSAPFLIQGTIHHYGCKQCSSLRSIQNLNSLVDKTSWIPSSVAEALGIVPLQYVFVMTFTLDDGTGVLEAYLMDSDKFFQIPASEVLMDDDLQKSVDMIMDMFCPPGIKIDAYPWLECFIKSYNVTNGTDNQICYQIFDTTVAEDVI


What was measured:
hPot1p [1] = target: T1, hPot1p; test: EMSA; conditions as for SpPot1p; conditions: tags: N-terminal His6 (pQE30), E. coli
hPot1p [2] = target: T1, hPot1p; test: listed as hPot1p-binding; conditions: tags: N-terminal His6 (pQE30), E. coli

Row | Binder | binding result (hPot1p [1]) | binding result (hPot1p [2])
1 | TTAGGGTTAGGGTTAGGGTTAGGGTTAGGG (ssDNA) [human G-strand (TTAGGG)5 (PBoli179)] | binds | 
2 | TTAGGGTTAGGGTTAGGGTT (ssDNA) [PBoli177] |  | binds
3 | GGTTAGGGTTAGGGTTAGGG (ssDNA) [PBoli178] |  | binds
